Reference: patent US12281340B2, “Method of producing N-acyl-amino group-containing compound” (AJINOMOTO CO., INC., priority 2018, dated 2025)

Assays:
Type in all cases: biochemical
Set-up in all cases: key: +: Detected; −: Not detected
[1] = Synthesis of N-caprinoylamino acid using purified acylamino acid synthetase, UPLC-MS detection; settings: +ATP
Method in brief: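 Purified enzyme (50 μg) with 5 mM amino acid, 5 mM sodium caprate, 10 mM ATP, 10 mM MgCl2, 1 mM DTT in Tris-HCl pH 8.0, 24 h at 25° C; product detected by UPLC-MS (ESI-negative) as the N-caprinoyl amino acid mass signal.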

[2] = Synthesis of N-lauroylamino acid / N-lauroylamino acid derivative using purified acylamino acid synthetase, UPLC-MS detection; settings: +ATP
Method: 0.2 mL of a reaction solution containing 50 mM Tris-HCl, 5 mM amino acid or D-amino acid derivative, 5 mM sodium laurate, 10 mM ATP, 10 mM MgCl2, 1 mM DTT, 200 μg/mL of the purified enzyme, pH 8.0 was incubated at 25° C. for 24 hours. After completion of the reaction, 0.8 mL of the reaction stop solution (1% (v/v) phosphoric acid, 75% (v/v) methanol) was added, and the mixture was filtrated through the filter followed by being subjected to the UPLC-MS analysis to detect a signal of a molecular weight corresponding to an N-lauroyl-amino acid or an N-lauroyl-amino acid derivative. The condition for the UPLC-MS analysis is as described in Example 2.
As a result of the UPLC-MS analysis, the signal of the molecular weight corresponding to the N-lauroyl-amino acid or the N-lauroyl-amino acid derivative was confirmed in the reaction solution containing the enzyme in combination with the amino acid or the amino acid derivative shown in Table 5 below.

[3] = Synthesis of N-acylamino acids from various fatty acids using purified acylamino acid synthetase, UPLC-MS detection
Method in brief: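 Purified enzyme (200 μg/mL) with 5 mM amino acid, 5 mM sodium fatty acid (3 mM palmitate or stearate, plus 10% methanol), 10 mM ATP, 10 mM MgCl2, 1 mM DTT in 50 mM Tris-HCl pH 8.0, shaken 24 h at 25 °C. Amino acid varied by enzyme; product mass detected by UPLC-MS (ESI-negative).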

[4] = Synthesis of N-lauroylamino acid / N-lauroylamino acid derivative using purified acylamino acid synthetase, UPLC-MS detection; settings: +ATP; remark: listed apart in the source
[5] = substrates GABA and sodium caprate
[6] = substrates Gly and sodium caprate
[7] = substrates L-Ala and sodium caprate
[8] = substrates L-Arg and sodium caprate
[9] = substrates L-Asn and sodium caprate
[10] = substrates L-Asp and sodium caprate
[11] = substrates L-Cys and sodium caprate
[12] = substrates L-Gln and sodium caprate
[13] = substrates L-Glu and sodium caprate
[14] = substrates L-His and sodium caprate
[15] = substrates L-Ile and sodium caprate
[16] = substrates L-Leu and sodium caprate
[17] = substrates L-Lys and sodium caprate
[18] = substrates L-Met and sodium caprate
[19] = substrates L-Phe and sodium caprate
[20] = substrates L-Pro and sodium caprate
[21] = substrates L-Ser and sodium caprate
[22] = substrates L-Thr and sodium caprate
[23] = substrates L-Trp and sodium caprate
[24] = substrates L-Tyr and sodium caprate
[25] = substrates L-Val and sodium caprate
[26] = substrates β-Ala and sodium caprate

B1: AtGH3-6: indole-3-acetic acid-amido synthetase GH3.6 from Arabidopsis thaliana, expressed in E. coli with N-terminal His-tag (protein, listed as Arabidopsis thaliana)
chain: MPEAPKIAALEVSDESLAEKNKNKLQFIEDVTTNADDVQRRVLEEILSRNADVEYLKRHGLEGRTDRETFKHIMPVVTYEDIQPEINRIANGDKSQVLCSNPISEFLTSSGTSGGERKLMPTIEEELDRRSLLYSLLMPVMDQFVPGLDKGKGMYFLFIKSESKTPGGLPARPVLTSYYKSSHFKNRPYDPYTNYTSPNQTILCSDSYQSMYSQMLCGLCQHKEVLRVGAVFASGFIRAIKFLEKHWPELARDIRTGTLSSEITDSSVREAVGEILKPDPKLADFVESECRKTSWQGIITRLWPNTKYVDVIVTGTMSQYIPTLDYYSNGLPLVCTMYASSECYFGVNLRPLCKPSEVSYTLIPNMAYFEFLPVHRNSGVTSSISLPKALTEKEQQELVDLVDVKLGQEYELVVTTYAGLYRYRVGDVLSVAGFKNNAPQFSFICRKNVVLSIDSDKTDEVELQNAVKNAVTHLVPFDASLSEYTSYADTSSIPGHYVLFWELCLNGNTPIPPSVFEDCCLTIEESLNSVYRQGRVSDKSIGPLEIKMVESGTFDKLMDYAISLGASINQYKTPRCVKFAPIIELLNSRVVDSYFSPKCPKWSPGHKQWGSN
modifications: N-terminal His-tag
notes: indole-3-acetic acid-amido synthetase GH3.6 from Arabidopsis thaliana, expressed in E. coli with N-terminal His-tag
signal of molecular weight corresponding to N-caprinoyl amino acid [1, 5]: + | signal of molecular weight corresponding to N-caprinoyl amino acid [1, 6]: + | signal of molecular weight corresponding to N-caprinoyl amino acid [1, 7]: + | signal of molecular weight corresponding to N-caprinoyl amino acid [1, 8]: + | signal of molecular weight corresponding to N-caprinoyl amino acid [1, 9]: + | signal of molecular weight corresponding to N-caprinoyl amino acid [1, 10]: + | signal of molecular weight corresponding to N-caprinoyl amino acid [1, 11]: + | signal of molecular weight corresponding to N-caprinoyl amino acid [1, 12]: + | signal of molecular weight corresponding to N-caprinoyl amino acid [1, 13]: + | signal of molecular weight corresponding to N-caprinoyl amino acid [1, 14]: + | signal of molecular weight corresponding to N-caprinoyl amino acid [1, 15]: + | signal of molecular weight corresponding to N-caprinoyl amino acid [1, 16]: + | signal of molecular weight corresponding to N-caprinoyl amino acid [1, 17]: + | signal of molecular weight corresponding to N-caprinoyl amino acid [1, 18]: + | signal of molecular weight corresponding to N-caprinoyl amino acid [1, 19]: + | signal of molecular weight corresponding to N-caprinoyl amino acid [1, 20]: + | signal of molecular weight corresponding to N-caprinoyl amino acid [1, 21]: + | signal of molecular weight corresponding to N-caprinoyl amino acid [1, 22]: + | signal of molecular weight corresponding to N-caprinoyl amino acid [1, 23]: + | signal of molecular weight corresponding to N-caprinoyl amino acid [1, 24]: + | signal of molecular weight corresponding to N-caprinoyl amino acid [1, 25]: + | signal of molecular weight corresponding to N-caprinoyl amino acid [1, 26]: + | signal of molecular weight corresponding to N-lauroyl amino acid ([2]; substrates Gly and sodium laurate): + | signal of molecular weight corresponding to N-lauroyl amino acid ([2]; substrates L-Ala and sodium laurate): + | signal of molecular weight corresponding to N-lauroyl amino acid ([2]; substrates L-Arg and sodium laurate): + | signal of molecular weight corresponding to N-lauroyl amino acid ([2]; substrates L-Asp and sodium laurate): + | signal of molecular weight corresponding to N-lauroyl amino acid ([2]; substrates L-Glu and sodium laurate): + | signal of molecular weight corresponding to N-lauroyl amino acid ([2]; substrates L-Lys and sodium laurate): + | signal of molecular weight corresponding to N-lauroyl amino acid ([2]; substrates L-Thr and sodium laurate): + | signal of molecular weight corresponding to N-lauroyl amino acid ([2]; substrates β-Ala and sodium laurate): + | signal of molecular weight corresponding to N-acylamino acid ([3]; substrates L-Asp and Capric acid): + | signal of molecular weight corresponding to N-acylamino acid ([3]; substrates L-Asp and Caproic acid): + | signal of molecular weight corresponding to N-acylamino acid ([3]; substrates L-Asp and Caprylic acid): + | signal of molecular weight corresponding to N-acylamino acid ([3]; substrates L-Asp and Lauric acid): + | signal of molecular weight corresponding to N-acylamino acid ([3]; substrates L-Asp and Linoleic acid): − | signal of molecular weight corresponding to N-acylamino acid ([3]; substrates L-Asp and Palmitic acid): + | signal of molecular weight corresponding to N-acylamino acid ([3]; substrates L-Asp and myristic acid): + | signal of molecular weight corresponding to N-lauroyl amino acid derivative ([4]; substrates Sarcosine and sodium laurate): + | signal of molecular weight corresponding to N-lauroyl amino acid derivative ([4]; substrates Taurine and sodium laurate): +

B2: CfHP: hypothetical protein from Cystobacter fuscus (GH3 protein), His-tagged (protein, listed as Cystobacter fuscus)
chain: MQAAGRRDKQRFIEQTRHVARVNVDTLRAILQHNRDTDFGRRHGFASLRTVEDFQRALPVSTYEPFRPYMERIARGEQNVLTADRVEYLGITSGTTGQRKLLPVSRPHLENMRRTMMIGRAVVTEKVPAARRPSRGMILMNAVLRERSEGGLLTGALTAISTHSMGRAASFAFTSPPEAFRLRKHADALYLHLLFGLRERELGTLMAPFASGLLDMVHLLERRGADLVDDIARGVLRPELDLEPEQRRLLQSRLLPDPERAREVSQALEQGPHGLLRRLWPRLAYVSSITGASFSLYTRQLTPYLEGVPLSAASYVSTEGILGVPLELEQAVYCLMVGMAFFEFIPERELDAESPTTLLPEQLVEGEAYEVVLTTQAGLYRYRLGDVVRIVGRYHEAPLMEFLYRRGALLNLMGEKTSEHAARLALEQALATEGLLPADYSVVEETETLPGRYALFVELQEGARPQGAPEQLSRALEEALCRTNPFYEVIRRSERLGAAQLHRVEPGTFQALRDVLVQRGASPTQVKVPRVVRDAELQGLLRQRRVTG
modifications: His-tag
notes: hypothetical protein from Cystobacter fuscus (GH3 protein), His-tagged
signal of molecular weight corresponding to N-caprinoyl amino acid [1, 5]: + | signal of molecular weight corresponding to N-caprinoyl amino acid [1, 6]: + | signal of molecular weight corresponding to N-caprinoyl amino acid [1, 7]: + | signal of molecular weight corresponding to N-caprinoyl amino acid [1, 8]: + | signal of molecular weight corresponding to N-caprinoyl amino acid [1, 9]: + | signal of molecular weight corresponding to N-caprinoyl amino acid [1, 10]: + | signal of molecular weight corresponding to N-caprinoyl amino acid [1, 11]: + | signal of molecular weight corresponding to N-caprinoyl amino acid [1, 12]: + | signal of molecular weight corresponding to N-caprinoyl amino acid [1, 13]: + | signal of molecular weight corresponding to N-caprinoyl amino acid [1, 14]: + | signal of molecular weight corresponding to N-caprinoyl amino acid [1, 15]: + | signal of molecular weight corresponding to N-caprinoyl amino acid [1, 16]: + | signal of molecular weight corresponding to N-caprinoyl amino acid [1, 17]: + | signal of molecular weight corresponding to N-caprinoyl amino acid [1, 18]: + | signal of molecular weight corresponding to N-caprinoyl amino acid [1, 19]: + | signal of molecular weight corresponding to N-caprinoyl amino acid [1, 20]: + | signal of molecular weight corresponding to N-caprinoyl amino acid [1, 21]: + | signal of molecular weight corresponding to N-caprinoyl amino acid [1, 22]: + | signal of molecular weight corresponding to N-caprinoyl amino acid [1, 23]: + | signal of molecular weight corresponding to N-caprinoyl amino acid [1, 24]: + | signal of molecular weight corresponding to N-caprinoyl amino acid [1, 25]: + | signal of molecular weight corresponding to N-caprinoyl amino acid [1, 26]: + | signal of molecular weight corresponding to N-acylamino acid ([3]; substrates Gly and Capric acid): + | signal of molecular weight corresponding to N-acylamino acid ([3]; substrates Gly and Caproic acid): + | signal of molecular weight corresponding to N-acylamino acid ([3]; substrates Gly and Caprylic acid): + | signal of molecular weight corresponding to N-acylamino acid ([3]; substrates Gly and Lauric acid): + | signal of molecular weight corresponding to N-acylamino acid ([3]; substrates Gly and Linoleic acid): − | signal of molecular weight corresponding to N-acylamino acid ([3]; substrates Gly and Palmitic acid): + | signal of molecular weight corresponding to N-acylamino acid ([3]; substrates Gly and myristic acid): +
